Laboratory results taken from US12329806B2, “Compound for modulating rlr, tlr, oas and/or oncostatin m pathways, use thereof for preparing a medicine, composition, method for modulating said pathways and method of treatment” (Instituto Butantan, priority 2018, dated 2025).

Experiments:
SK-MEL-28 cells = assay: Cell viability tests (survival rate), previous experiment; format: cell-based, human; details: rounded values
Text: (§1) ER stress also promotes mitochondrial dysfunction, Cytochrome c release, PARP cleavage, Ca+^2 mobilization and caspase activation in SK-MEL-28 and Mia-PaCa-2 cells, positively regulating CASP3. The survival rate of the previous experiment, calculated using cell viability tests, is herein summarized: Mia-PaCa-2 67%, SK-MEL-28 44%, SK-MEL-5 42%, non-tumoral human fibroblasts 100% (rounded values). These numbers indicate that part of the cells possibly survives through a positive unfolded protein response (UPR) and part dies. […] Furthermore, autophagy could also be evoked to recover a global tissue homeostasis, and, in this case, there is the signature of immunogenic cell death (ICD). It is believed that the ICD could explain this.

Mia-PaCa-2 cells = assay: as above; format: cell-based, human; details: rounded values
Text: as §1

B1: Amblyomin-X: recombinant Kunitz type protein identified in a cDNA library of Amblyomma sculptum tick salivary glands (protein)
chain: MRQLAVLALVIFTGMCVESQSANSKAVCNLPKLAGDETCSNKTEIRWYYNGTACEAFIFKGCGGNDNNFDRVDDCQRLCEEQTHFHFESPKLICFKVQDYWILNDIMKKNLTGISLKSEEEDADSGEID
modifications: Amblyomin-X
notes: recombinant Kunitz type protein identified in a cDNA library of Amblyomma sculptum tick salivary glands
survival rate (SK-MEL-28 cells): 44% | survival rate (Mia-PaCa-2 cells): 67%
